Reference: patent US9238802B2, “E. coli transformant, method for producing flavin-bound glucose dehydrogenase using the same, and mutant flavin-bound glucose dehydrogenases” (KIKKOMAN CORPORATION, priority 2010, dated 2016)

Assays:
Format in all cases: biochemical
[1] = Substrate specificity of GDHs produced by the E. coli transformant; conditions: according to Examples 3 and 5
[2] = GOD activity (4-AA/TOOS/POD assay); conditions: 37° C., 131 mM D-glucose
Procedure: GDH activity was measured as described in Example 1. GOD activity was measured using 4-aminoantipyrine (4-AA) and N-ethyl-N-(2-hydroxy-3-sulfopropyl)-3-methylaniline (TOOS) as described below. To initiate a reaction, 30.0 mL of 100 mM phosphate buffer (pH 7.0), 6.0 mL of 833 mM D-glucose solution, 0.3 mL of 25 mM 4-AA solution, 0.3 mL of 40 mM TOOS solution, and 0.3 mL of 500 U/mL POD solution were mixed, of which 3.0 mL was transferred into a test tube and incubated at 37° C. for five minutes, and 0.1 mL of an enzyme sample solution was added. An increase in the absorbance at 555 nm (ΔA555) per minute due to the progress of the enzyme reaction was determined to calculate GOD activity according to the following formula.
The formula indicates 3.1 as the liquid volume (mL) of reaction reagent plus enzyme reagent, 32.8 as millimolar extinction coefficient (cm^2/μmol) under the activity assay conditions, 0.5 as the number of quinoneimine dye molecules generated when one H2O2 molecule is reduced, 0.1 as the liquid volume (mL) of an enzyme solution, 1.0 as the optical path length (cm) of a cell, ΔA555blank as an increase in the absorbance at 555 nm per minute when 10 mM acetate buffer, instead of an enzyme sample solution, is added to initiate a reaction, and df as a dilution factor.

[3] = GDH activity of purified enzymes (DCIP/PMS assay); conditions: purified enzyme
Procedure: Specifically, the activities of the flavin-bound GDHs are measured according to the following procedures. To initiate a reaction, 1.79 mL of 100 mM phosphate buffer (pH7.0), 0.08 mL of 1.25 M D-glucose solution, and 0.01 mL of 20 mM DCIP solution are mixed, followed by incubation at 37° C. for 5 minutes, and, subsequently, 0.02 mL of 20 mM PMS solution and 0.1 mL of an enzyme sample solution are added. Absorbance is measured at the initiation of the reaction and over time to determine a decrease in the absorbance at 600 nm (ΔA600) per minute due to the progress of the enzyme reaction and calculate flavin-bound GDH activity according to the following formula. […]
Solutions were mixed according to the following procedures, followed by absorbance measurement to examine GDH activity in the crude enzyme solution. […] A decrease in the absorbance at 600 nm (ΔA600) per minute due to the progress of the enzyme reaction after the initiation of the reaction was determined to calculate GDH activity according to the following formula. […]
GDH activity was measured as described in Example 1. GOD activity was measured using 4-aminoantipyrine (4-AA) and N-ethyl-N-(2-hydroxy-3-sulfopropyl)-3-methylaniline (TOOS) as described below. […] An increase in the absorbance at 555 nm (ΔA555) per minute due to the progress of the enzyme reaction was determined to calculate GOD activity according to the following formula.

Molecule | substrate specificity (in words) [1] | GOD activity [2] [U/mL] | GDH activity [3] [U/mL]
NS1: GDH with a deletion to the 20th Ala and Met added to the 21st Gln (SEQ ID NO: 23) (protein, NS1) MQQDTNSSSTDTYDYVIVGGGVAGLALASRISENKDVTVAVLESGPNANDRFVVYAPGMYGQAVGTDLCPLIPTTPQENMGNRSLTIATGRLLGGGSAINGLVWTRGGLKDYDAWEELGNPGWNGANLFKYFKKVENFTPPTPAQIEYGATYQKSAHGKKGPIDVSFTNYEFSQSASWNASLETLDFTALPDILNGTLAGYSTTPNILDPETVQRVDSYTGYIAPYTSRNNLNVLANHTVSRIQFAPKNGSEPLKATGVEWYPTGNKNQKQIIKARYEVIISSGAIGSPKLLEISGIGNKDIVSAAGVESLIDLPGVGSNMQDHVHAITVSTTNITGYTTNSVFVNETLAQEQREEYEANKTGIWATTPNNLGYPTPEQLFNGTEFVSGKEFADKIRNSTDEWANYYASTNASNVELLKKQYAIVASRYEENYLSPIEINFTPGYEGSGNVDLQNNKYQTVNHVLIAPLSRGYTHINSSDVEDHSVINPQYYSHPMDIDVHIASTKLAREIITASPGLGDINSGEIEPGMNITSEDDLRSWLSNNVRSDWHPVGTCAMLPKELGGVVSPALMVYGTSNLRVVDASIMPLEVSSHLMQPTYGIAEKAADIIKNFYKTQHKNQN | almost comparable with that of the purified GDH obtained in Example 2 |  | 
NS2: GDH with a deletion to the 20th Ala and the 21st Gln substituted by Met (SEQ ID NO: 25) (protein, NS2) MQDTNSSSTDTYDYVIVGGGVAGLALASRISENKDVTVAVLESGPNANDRFVVYAPGMYGQAVGTDLCPLIPTTPQENMGNRSLTIATGRLLGGGSAINGLVWTRGGLKDYDAWEELGNPGWNGANLFKYFKKVENFTPPTPAQIEYGATYQKSAHGKKGPIDVSFTNYEFSQSASWNASLETLDFTALPDILNGTLAGYSTTPNILDPETVQRVDSYTGYIAPYTSRNNLNVLANHTVSRIQFAPKNGSEPLKATGVEWYPTGNKNQKQIIKARYEVIISSGAIGSPKLLEISGIGNKDIVSAAGVESLIDLPGVGSNMQDHVHAITVSTTNITGYTTNSVFVNETLAQEQREEYEANKTGIWATTPNNLGYPTPEQLFNGTEFVSGKEFADKIRNSTDEWANYYASTNASNVELLKKQYAIVASRYEENYLSPIEINFTPGYEGSGNVDLQNNKYQTVNHVLIAPLSRGYTHINSSDVEDHSVINPQYYSHPMDIDVHIASTKLAREIITASPGLGDINSGEIEPGMNITSEDDLRSWLSNNVRSDWHPVGTCAMLPKELGGVVSPALMVYGTSNLRVVDASIMPLEVSSHLMQPTYGIAEKAADIIKNFYKTQHKNQN | almost comparable with that of the purified GDH obtained in Example 2 |  | 
NS3: GDH with a deletion to the 27th Ser and Met added to the 28st Ser (SEQ ID NO: 30) (protein, NS3) MSTDTYDYVIVGGGVAGLALASRISENKDVTVAVLESGPNANDRFVVYAPGMYGQAVGTDLCPLIPTTPQENMGNRSLTIATGRLLGGGSAINGLVWTRGGLKDYDAWEELGNPGWNGANLFKYFKKVENFTPPTPAQIEYGATYQKSAHGKKGPIDVSFTNYEFSQSASWNASLETLDFTALPDILNGTLAGYSTTPNILDPETVQRVDSYTGYIAPYTSRNNLNVLANHTVSRIQFAPKNGSEPLKATGVEWYPTGNKNQKQIIKARYEVIISSGAIGSPKLLEISGIGNKDIVSAAGVESLIDLPGVGSNMQDHVHAITVSTTNITGYTTNSVFVNETLAQEQREEYEANKTGIWATTPNNLGYPTPEQLFNGTEFVSGKEFADKIRNSTDEWANYYASTNASNVELLKKQYAIVASRYEENYLSPIEINFTPGYEGSGNVDLQNNKYQTVNHVLIAPLSRGYTHINSSDVEDHSVINPQYYSHPMDIDVHIASTKLAREIITASPGLGDINSGEIEPGMNITSEDDLRSWLSNNVRSDWHPVGTCAMLPKELGGVVSPALMVYGTSNLRVVDASIMPLEVSSHLMQPTYGIAEKAADIIKNFYKTQHKNQN | almost comparable with that of the purified GDH obtained in Example 2 |  | 
NS4: GDH with a deletion to the 27th Ser and the 28st Ser substituted by Met (SEQ ID NO: 32) (protein, NS4) MTDTYDYVIVGGGVAGLALASRISENKDVTVAVLESGPNANDRFVVYAPGMYGQAVGTDLCPLIPTTPQENMGNRSLTIATGRLLGGGSAINGLVWTRGGLKDYDAWEELGNPGWNGANLFKYFKKVENFTPPTPAQIEYGATYQKSAHGKKGPIDVSFTNYEFSQSASWNASLETLDFTALPDILNGTLAGYSTTPNILDPETVQRVDSYTGYIAPYTSRNNLNVLANHTVSRIQFAPKNGSEPLKATGVEWYPTGNKNQKQIIKARYEVIISSGAIGSPKLLEISGIGNKDIVSAAGVESLIDLPGVGSNMQDHVHAITVSTTNITGYTTNSVFVNETLAQEQREEYEANKTGIWATTPNNLGYPTPEQLFNGTEFVSGKEFADKIRNSTDEWANYYASTNASNVELLKKQYAIVASRYEENYLSPIEINFTPGYEGSGNVDLQNNKYQTVNHVLIAPLSRGYTHINSSDVEDHSVINPQYYSHPMDIDVHIASTKLAREIITASPGLGDINSGEIEPGMNITSEDDLRSWLSNNVRSDWHPVGTCAMLPKELGGVVSPALMVYGTSNLRVVDASIMPLEVSSHLMQPTYGIAEKAADIIKNFYKTQHKNQN | almost comparable with that of the purified GDH obtained in Example 2 |  | 
GOD derived from Aspergillus niger: commercial glucose oxidase derived from Aspergillus niger (GOD, biozyme laboratories) (protein, UniProt P13006 17-605, looked up) Glucose oxidase: LPHYIRSNGIEASLLTDPKDVSGRTVDYIIAGGGLTGLTTAARLTENPNISVLVIESGSYESDRGPIIEDLNAYGDIFGSSVDHAYETVELATNNQTALIRSGNGLGGSTLVNGGTWTRPHKAQVDSWETVFGNEGWNWDNVAAYSLQAERARAPNAKQIAAGHYFNASCHGVNGTVHAGPRDTGDDYSPIVKALMSAVEDRGVPTKKDFGCGDPHGVSMFPNTLHEDQVRSDAAREWLLPNYQRPNLQVLTGQYVGKVLLSQNGTTPRAVGVEFGTHKGNTHNVYAKHEVLLAAGSAVSPTILEYSGIGMKSILEPLGIDTVVDLPVGLNLQDQTTATVRSRITSAGAGQGQAAWFATFNETFGDYSEKAHELLNTKLEQWAEEAVARGGFHNTTALLIQYENYRDWIVNHNVAYSELFLDTAGVASFDVWDLLPFTRGYVHILDKDPYLHHFAYDPQYFLNELDLLGQAAATQLARNISNSGAMQTYFAGETIPGDNLAYDADLSAWTEYIPYHFRPNYHGVGTCSMMPKEMGGVVDNAARVYGVQGLRVIDGSIPPTQMSSHVMTVFYAMALKISDAILEDYASMQ |  | 9.38 | 3.50
